ADCC reporter assay, EC50 Value, CHOK1/B7-H3 cells and ADCC reporter assay, Max RLU, CHOK1/B7-H3 cells data for one substance are collected here from patent US20260008852A1.

The test addresses B7-H3 on CHO-K1 cells stably transfected with B7-H3 (GenScript #M00536) (UniProt Q5ZPR3). Put plainly: cell-based or functional assay.

Sequence of B7-H3 on CHO-K1 cells stably transfected with B7-H3 (GenScript #M00536) (Q5ZPR3 29-534 limits assumed): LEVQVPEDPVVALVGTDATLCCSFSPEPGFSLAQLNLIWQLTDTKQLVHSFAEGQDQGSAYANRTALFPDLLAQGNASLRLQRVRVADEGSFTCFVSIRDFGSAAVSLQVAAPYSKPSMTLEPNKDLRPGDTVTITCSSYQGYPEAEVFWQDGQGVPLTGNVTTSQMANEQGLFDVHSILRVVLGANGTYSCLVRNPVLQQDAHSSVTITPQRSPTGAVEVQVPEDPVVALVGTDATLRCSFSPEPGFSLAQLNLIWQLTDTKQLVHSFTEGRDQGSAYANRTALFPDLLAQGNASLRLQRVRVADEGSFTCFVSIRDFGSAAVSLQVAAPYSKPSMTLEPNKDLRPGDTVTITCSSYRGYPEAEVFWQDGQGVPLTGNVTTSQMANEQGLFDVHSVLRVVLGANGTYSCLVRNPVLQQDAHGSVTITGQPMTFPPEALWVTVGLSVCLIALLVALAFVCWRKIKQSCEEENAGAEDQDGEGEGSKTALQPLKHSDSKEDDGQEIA

Benchmark MGA-271 (antibody) yielded an ADCC reporter assay, EC50 Value, CHOK1/B7-H3 cells of 4.55 µg/mL and an ADCC reporter assay, Max RLU, CHOK1/B7-H3 cells of 162000 RLU.
